One substance from patent publication US20240133890A1 can be followed below.

This data set concerns the target WSTF (BAZ1B) (UniProt Q9UIG0).
UniProt Q9UIG0, sequence (Q9UIG0 whole entry): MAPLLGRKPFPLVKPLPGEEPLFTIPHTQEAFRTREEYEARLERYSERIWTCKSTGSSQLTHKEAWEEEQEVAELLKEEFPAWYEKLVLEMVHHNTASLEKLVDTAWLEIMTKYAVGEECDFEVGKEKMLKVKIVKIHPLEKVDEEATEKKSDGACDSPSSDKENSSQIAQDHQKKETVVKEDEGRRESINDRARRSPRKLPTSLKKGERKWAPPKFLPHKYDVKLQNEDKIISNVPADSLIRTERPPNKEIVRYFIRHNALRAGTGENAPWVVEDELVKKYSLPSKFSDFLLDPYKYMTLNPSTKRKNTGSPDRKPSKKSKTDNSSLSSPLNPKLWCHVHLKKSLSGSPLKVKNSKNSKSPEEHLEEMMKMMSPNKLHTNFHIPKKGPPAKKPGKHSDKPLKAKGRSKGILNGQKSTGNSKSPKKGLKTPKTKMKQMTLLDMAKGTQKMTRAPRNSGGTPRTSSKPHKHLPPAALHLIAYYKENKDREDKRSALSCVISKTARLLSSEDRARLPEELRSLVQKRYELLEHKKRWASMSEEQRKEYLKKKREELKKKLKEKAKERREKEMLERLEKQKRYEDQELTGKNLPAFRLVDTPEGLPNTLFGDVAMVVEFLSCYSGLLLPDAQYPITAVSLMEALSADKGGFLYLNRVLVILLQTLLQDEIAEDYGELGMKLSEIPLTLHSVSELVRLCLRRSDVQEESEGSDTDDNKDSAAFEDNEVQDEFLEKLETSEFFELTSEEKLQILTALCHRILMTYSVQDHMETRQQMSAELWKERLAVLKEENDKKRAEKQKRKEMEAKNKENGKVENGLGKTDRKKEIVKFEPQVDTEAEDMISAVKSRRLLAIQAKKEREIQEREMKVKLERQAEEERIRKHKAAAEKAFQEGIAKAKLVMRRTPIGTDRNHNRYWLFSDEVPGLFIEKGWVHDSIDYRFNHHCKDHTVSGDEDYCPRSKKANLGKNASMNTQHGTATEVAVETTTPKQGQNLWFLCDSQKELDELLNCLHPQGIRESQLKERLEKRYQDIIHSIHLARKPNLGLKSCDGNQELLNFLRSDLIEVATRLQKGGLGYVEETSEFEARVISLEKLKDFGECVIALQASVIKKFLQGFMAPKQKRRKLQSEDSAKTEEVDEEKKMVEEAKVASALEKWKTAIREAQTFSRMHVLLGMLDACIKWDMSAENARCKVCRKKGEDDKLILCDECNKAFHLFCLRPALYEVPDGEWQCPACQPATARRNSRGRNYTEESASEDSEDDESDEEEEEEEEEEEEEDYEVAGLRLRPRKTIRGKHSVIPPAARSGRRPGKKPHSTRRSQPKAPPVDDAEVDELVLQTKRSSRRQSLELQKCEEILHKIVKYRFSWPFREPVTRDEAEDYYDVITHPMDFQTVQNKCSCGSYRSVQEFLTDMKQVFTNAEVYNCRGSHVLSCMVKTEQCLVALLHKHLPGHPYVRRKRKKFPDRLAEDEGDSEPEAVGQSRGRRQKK

Consider JMJD6, for which the “level of WSTF hydroxylation (Western blot with Ab1, MCF-7 nucleoprotein)” value is listed as “after JMJD6 knockdown or mutation, the level of WSTF hydroxylation was significantly reduced”.
